Assay results from patent US20200123254A1 (LENTIGEN TECHNOLOGY, published 2020).
Changes are numbered by the printed parent chain.

B1: human anti-CD19 ScFv binder M19217 (scFv)
scFv: EVQLVQSGAEVKKPGASVKVSCKASGYTFTSYYMHWVRQAPGQGLEWMGIINPSGGSTSYAQKFQGRVTMTRDTSTSTVYMELSSLRSEDTAVYYCARSDRGITATDAFDIWGQGTMVTVSSGGGGSGGGGSGGGGSQSVLTQPPSVSVAPGQTAKITCGGSDIGNKNVHWYQQKPGQAPVLVVYDDYDRPSGIPERFSGSNSGDAATLTISTVEVGDEADYFCQVWDSSGDPYWVFGGGTQLTVLG
notes: also called ScFv1; founder clone
B2: human anti-CD19 ScFv binder M19217-1 (scFv)
scFv: B1 scFv with I50L, Q153R, T154M, S229G, V236M
notes: also called ScFv2
B3: human anti-CD19 ScFv binder M19217-2 (scFv)
scFv: B1 scFv with L45F, I50L, G56S, S85N, S148P, T158I, S229G
notes: also called ScFv3
B4: human anti-CD19 ScFv binder M19217-7 (scFv)
scFv: B1 scFv with K12N, I50M, A105S, V149L, D189N, A206S, S229G
notes: also called ScFv4
B5: human anti-CD19 ScFv binder M19217-23 (scFv)
scFv: B1 scFv with S31G, M48I, I50L, A61E, T69A, N166D, S229G, S230I
notes: also called ScFv5
B6: human anti-CD19 ScFv binder M19217-29 (scFv)
scFv: B1 scFv with I50M, V169A, P195S, S229G, Y234F
notes: also called ScFv6
B7: human anti-CD19 ScFv binder M19217-38 (scFv)
scFv: B1 scFv with K13R, Q43R, I50L, K63E, T74M, T104S, T154M, D189N, S229G, V245D
notes: also called ScFv7
B8: human anti-CD19 ScFv binder M19217-40 (scFv)
scFv: B1 scFv with K13R, E46V, I50L, I157T, F223V, S229G
notes: also called ScFv8
B9: LTG2050 (LP-M19217-CD8 TM-41BB-CD3 zeta) CAR (other)
chain: EVQLVQSGAEVKKPGASVKVSCKASGYTFTSYYMHWVRQAPGQGLEWMGIINPSGGSTSYAQKFQGRVTMTRDTSTSTVYMELSSLRSEDTAVYYCARSDRGITATDAFDIWGQGTMVTVSSGGGGSGGGGSGGGGSQSVLTQPPSVSVAPGQTAKITCGGSDIGNKNVHWYQQKPGQAPVLVVYDDYDRPSGIPERFSGSNSGDAATLTISTVEVGDEADYFCQVWDSSGDPYWVFGGGTQLTVLGAAATTTPAPRPPTPAPTIASQPLSLRPEACRPAAGGAVHTRGLDFACDIYIWAPLAGTCGVLLLSLVITLYCKRGRKKLLYIFKQPFMRPVQTTQEEDGCSCRFPEEEEGGCELRVKFSRSADAPAYQQGQNQLYNELNLGRREEYDVLDKRRGRDPEMGGKPRRKNPQEGLYNELQKDKMAEAYSEIGMKGERRRGKGHDGLYQGLSTATKDTYDALHMQALPPR
notes: Chimeric antigen receptor on the surface of transduced primary human T cells; also called ScFv1-CD8 TM-41BB-CD3 zeta
B10: LTG2065 (LP-M19217-1-CD8 TM-41BB-CD3 zeta) CAR (other)
chain: B9 chain with I50L, Q153R, T154M, S229G, V236M
notes: Chimeric antigen receptor on the surface of transduced primary human T cells; also called ScFv2-CD8TM-4-1BB-CD3 zeta
B11: LTG2066 (LP-M19217-2-CD8 TM-41BB-CD3 zeta) CAR (other)
chain: B9 chain with L45F, I50L, G56S, S85N, S148P, T158I, S229G
notes: Chimeric antigen receptor on the surface of transduced primary human T cells; also called ScFv3-CD8TM-4-1BB-CD3 zeta
B12: LTG2067 (LP-M19217-7-CD8 TM-41BB-CD3 zeta) CAR (other)
chain: B9 chain with K12N, I50M, A105S, V149L, D189N, A206S, S229G
notes: Chimeric antigen receptor on the surface of transduced primary human T cells; also called ScFv4-CD8TM-4-1BB-CD3 zeta
B13: LTG2068 (LP-M19217-23-CD8 TM-41BB-CD3 zeta) CAR (other)
chain: B9 chain with S31G, M48I, I50L, A61E, T69A, N166D, S229G, S230I
notes: Chimeric antigen receptor on the surface of transduced primary human T cells; also called ScFv5-CD8TM-4-1BB-CD3 zeta
B14: LTG2069 (LP-M19217-29-CD8 TM-41BB-CD3 zeta) CAR (other)
chain: B9 chain with I50M, V169A, P195S, S229G, Y234F
notes: Chimeric antigen receptor on the surface of transduced primary human T cells; also called ScFv6-CD8TM-4-1BB-CD3 zeta
B15: LTG2070 (LP-M19217-38-CD8 TM-41BB-CD3 zeta) CAR (other)
chain: B9 chain with K13R, Q43R, I50L, K63E, T74M, T104S, T154M, D189N, S229G, V245D
notes: Chimeric antigen receptor on the surface of transduced primary human T cells; also called ScFv7-CD8TM-4-1BB-CD3 zeta
B16: LTG2071 (LP-M19217-40-CD8 TM-41BB-CD3 zeta) CAR (other)
chain: B9 chain with K13R, E46V, I50L, I157T, F223V, S229G
notes: Chimeric antigen receptor on the surface of transduced primary human T cells; also called ScFv8-CD8TM-4-1BB-CD3 zeta

Each binder was assayed against T1, recombinant human CD19 (labeled CD19) (human, UniProt P15391 20-291, limits assumed, fluorescent label, kind and site not stated) (assay: flow cytometry of yeast-displayed scFv titrated with decreasing amounts of labeled CD19).
T1 construct: The antigen titrated on yeast is only called 'labeled CD19'; also called fluorescently tagged antigen
T1 sequence (looked up): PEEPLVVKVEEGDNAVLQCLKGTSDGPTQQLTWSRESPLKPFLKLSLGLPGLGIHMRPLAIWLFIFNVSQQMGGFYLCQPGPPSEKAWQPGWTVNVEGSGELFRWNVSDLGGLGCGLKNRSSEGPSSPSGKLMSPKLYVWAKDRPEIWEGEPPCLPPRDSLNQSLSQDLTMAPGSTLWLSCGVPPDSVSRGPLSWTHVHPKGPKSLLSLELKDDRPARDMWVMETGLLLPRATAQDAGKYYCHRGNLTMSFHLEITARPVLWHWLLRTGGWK
Experimental: To increase the affinity of m19217, a yeast-display m19217 mutant scFv library was created by using error-prone PCR to create random point mutations in scFv gene sequences. After electroporation, the resulting mutant library was then grown overnight at 30° C. for 16 hours in SDCAA medium and then switched into SGCAA medium at 30° C. for another 16 hours. The mutant library was then sorted through MACS (immunomagentic column, Miltenyi Biotec) with CD19-Fc as the capture antigen to downsize the library and to increase the population of mutants that could bind to CD19-Fc. The strongest binders were then selected by double staining the pools with Anti-c-Myc-Alexa 488 and CD19-Fc/Anti-Hu-Fc and selecting for the binders that had the highest binding affinities as well as c-Myc expression levels. […] Binidng affinities were estimated by flow cytometry of yeast pools using decreasing amounts of labeled CD19.

Binder	EC50 [µg/mL]
B1	0.5
B2	< 0.01
B3	< 0.01
B4	< 0.01
B5	< 0.01
B6	< 0.01
B7	< 0.01
B8	< 0.01

The binders below were run against T2, CD19-Fc peptide (R&D, Minneapolis, Minn.) (UniProt P15391 20-291) (assay: flow cytometry of CAR-transduced primary human T cells stained with CD19-Fc then anti Fc-AF647; untransduced T cells set as 0%).
T2 construct: Bought reagent; also called recombinant CD19-Fc peptide; not shown: Fc part; bought reagent, detected with anti-human Fc F(ab')2-AF647
T2 sequence (looked up): T1 sequence (looked up)
Experimental: FIG. 3 depicts anti-CD19 CAR surface expression in primary human T cells. CAR T cells redirected to CD19 tumor antigen via the use of ScFv domains (as listed in each panel) were generated by lentiviral transduction with CAR expression constructs. CART detection was performed by flow cytometry. T cells were washed twice in cold PBS-EDTA buffer and stained with CD19-Fc peptide followed by anti Fc-AF647 reagent. At least 20,000 cells were acquired for each analysis. Cells were gated based on forward scatter and side scatter, singlet discrimination, and 7AAD negativity so that only viable cells were analyzed. Data were acquired on MACSQuant 10 flow cytometer in the APC channel. UTD, un-transduced negative control cells. The marker in each panel identifies the CAR-expressing population, and are listed as percent of total transduced T cells analyzed.
For cell staining, half a million CAR T transduced cells were harvested from culture, washed two times in cold AutoMACS buffer supplemented with 0.5% bovine serum albumin (Miltenyi Biotec), and CAR surface expression detected by staining with CD19-Fc peptide (R&D, Minneapolis, Minn.) followed by anti Fc-AF647 conjugate (Jackson ImmunoResearch, West Grove, Pa.). Non-transduced cells were used as negative controls. Dead cells in all studies were excluded by 7AAD staining (BD Biosciences, San Jose, Calif.). Cells were washed twice and resuspended in 200 ul Staining Buffer before quantitative analysis by flow cytometry. Flow cytometric analysis was performed on a MACSQuant®10 Analyzer (Miltenyi Biotec), and data plots were generated using FlowJo software (Ashland, Oreg.).
T cells were activated on culture Day 0 with TransAct T cell reagent (active engagement of CD3 and CD28 antigens, Miltenyi Biotec, Inc.) in the presence of IL-2 as described in Materials and Methods. On culture Day 8-10, expression of anti-CD19 CARs on T cell surface was detected by CD19-Fc peptide followed by anti Fc-AF647 and analyzed by flow cytometry.

Binder	CAR expression level (percent of transduced T cells stained by CD19-Fc) [%]
B9	46
B10	64
B11	21
B12	81
B13	54
B14	68
B15	47
B16	21
